The values below are quoted from earlier work in PMC3871196.

The target in this data set is Calmodulin (UniProt P0DP23).

Consider “Peripherin/rds PerCter C-terminal domain (from UniProt P17810)”, for which the Kd is 320 nM.
